The text below walks through data of patent publication US20250336476A1 (published 2025).

The labels stand for the following.
B1: Nb17 (VHH)
VHH: HVQLVESGGGLVQAGGSLRLSCAASGSIFSSNAMSWYRQAPGKQRELVASITSGGNADYADSVKGRFTISRDKNTVYPEMSSLKPADTAVYYCHAVGQEASAYAPRAYWGQGTQVTVS
B2: humanized Nb21 (hNb21) (VHH)
VHH: QVQLVESGGGLVQPGGSLRLSCAASWFRRAPGKEREFVAYADSVKGRFTISRDNAKNTLYLQMNSLRAEDTAVYYCAAWGQGTLVTVS
B3: Nb64 (VHH)
VHH: QVQLVESGGGLVQAGGSLRLSCAVSGRTFSIAGMGWFRQAPGKDREFLGGITWNDGTTWYADSVKGRFTISRDNAKNMLSLRMNSLKPEDTAVYYCAAGPRLGSTPRAYDYWGQGTQVTVS
B4: Nb9 (VHH)
VHH: HVQLVESGGGLVQTGGSLRLSCAFSGYTFSTFPTAWFRQAPGKEREFVAGIRWNGGSRDYTEYADFVKGRFTISRDNAKNMIYLQMISLKPEDTALYYCAASHGVVDGTSVNGYRYWGQGTQVTVS
B5: Nb105 (VHH)
VHH: HVQLVESGGGLVQAGGSLRLSCAVSGRTFSTYGMAWFRQAPGKERDFVATITRSGETTLYADSVKGRFTISRDNAKNTVYLQMNSLKIEDTAVYYCAVRRDSSWGYSRDLFEYDYWGQGTQVTVS
B6: Nb34 (VHH)
VHH: DVQLVESGGGLVQAGGSLRLSCAASGFTFSNYVMYWGRQAPGKGREWVSGIDSDGSDTAYASSVKGRFTISRDNAKNTLYLQMNNLKPEDTALYYCVKSKDPYGSPWTRSEFDDYWGQGTQVTVS
B7: Nb93 (VHH)
VHH: EVQLVESGGGLVQPGGSLRLSCAASGFTFSSYAMSWVRQAPGKGREWVAGITPGSGTFYADSVKGRFTISRDNAKNTLSLEINSLKPEDTALYYCAKCRQEFSWDFSSRDPDDFDYWGQGTQVTVS
B8: Nb95 (VHH)
VHH: QVQLVESGGGLVQAGGSLRLSCAASGRTFSSYSMGWFRQAQGKEREFVATINGNGRDTYYTNSVKGRFTISRDDATNTVYLQMNSLKPEDTAIYYCAADKDVYYGYTSFPNEYEYWGQGTQVTVS
B9: Nb21 WT (VHH)
VHH: QVQLVESGGGLVQAGGSLRLSCAVSGLGAHRVGWFRRAPGKEREFVAAIGANGGNTNYLDSVKGRFTISRDNAKNTIYLQMNSLKPQDTAVYYCAARDIETAEYTYWGQGTQVTVSS

The target of one experiment is RBD (SARS-CoV-2 spike) (SARS-CoV-2, UniProt P0DTC2 319-541). Put plainly: ELISA.
In the case of B1, the 50% effective concentration (EC50) (as a rule, the concentration that produces a half-maximal response) amounted to 0.97 nM.

Consider B2, for which the midpoint of the response, the EC50, lay at 1.34 nM. The EC50 values of the last two molecules are within 1.5-fold of each other. On the same count and under the same terms, the result for B3 reads 1.22 nM. Still for that read-out and setting: the result for B4 reads 2.76 nM; that for B5, 1.69 nM; that for B6, 0.53 nM. On the same count and under the same terms, the result for B7 reads 1.13 nM; that for B8, 3.77 nM.

For a further experiment, the target named is RBD (SARS-CoV-2, UniProt P0DTC2 319-541). Put plainly: ELISA. (In general: ELISA stands for enzyme-linked immunosorbent assay.)
B9 gave an EC50 of 1.69 nM.
